Target: T1, recombinant mouse E-selectin-human Fc chimera (mouse, UniProt Q00690 22-557)
T1 construct: Bought reagent (R&D Systems); Used as the probe in western blots and detected with HRP goat anti-human Ig; also called E-selectin-Ig chimera; E-Ig; not shown: human Fc
T1 sequence (looked up): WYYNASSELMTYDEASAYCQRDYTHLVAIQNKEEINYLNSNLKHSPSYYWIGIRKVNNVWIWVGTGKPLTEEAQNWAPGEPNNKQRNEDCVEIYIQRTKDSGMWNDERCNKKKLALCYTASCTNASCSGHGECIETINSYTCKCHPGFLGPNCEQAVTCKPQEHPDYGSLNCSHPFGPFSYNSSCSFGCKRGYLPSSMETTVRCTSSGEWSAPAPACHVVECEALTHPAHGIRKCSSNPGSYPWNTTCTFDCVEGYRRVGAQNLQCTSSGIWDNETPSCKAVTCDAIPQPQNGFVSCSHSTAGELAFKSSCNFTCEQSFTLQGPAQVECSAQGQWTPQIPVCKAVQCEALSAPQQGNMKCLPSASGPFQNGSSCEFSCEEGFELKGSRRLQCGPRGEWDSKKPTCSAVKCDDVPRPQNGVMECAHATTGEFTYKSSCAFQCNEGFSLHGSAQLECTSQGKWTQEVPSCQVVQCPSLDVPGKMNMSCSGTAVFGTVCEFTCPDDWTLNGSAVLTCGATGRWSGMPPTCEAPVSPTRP
Experiment: western blot of ML lysates and WGA-purified glycoproteins, reducing SDS-PAGE

B1: P-selectin glycoprotein ligand-1 (PSGL-1), Cutaneous Lymphocyte Antigen glycoform, from ML lysates (ligand, human, UniProt Q14242 42-412, looked up)
chain: QATEYEYLDYDFLPETEPPEMLRNSTDTTPLTGPGTPESTTVEPAARRSTGLDAGGAVTELTTELANMGNLSTDSAAMEIQTTQPAATEAQTTQPVPTEAQTTPLAATEAQTTRLTATEAQTTPLAATEAQTTPPAATEAQTTQPTGLEAQTTAPAAMEAQTTAPAAMEAQTTPPAAMEAQTTQTTAMEAQTTAPEATEAQTTQPTATEAQTTPLAAMEALSTEPSATEALSMEPTTKRGLFIPFSVSSVTHKGIPMAASNLSVNYPVGAPDHISVKQCLLAILILALVATIFFVCTVVLAVRLSRKGHMYPVRNYSPTEMVCISSLLPDGGEGPSATANGGLSKAKSPGLTPEPREDREGDDLTLHSFLP
modifications: sialofucosylated glycans
notes: Named only by the position of its band in the blot; also called CLA; ~140 kDa E-selectin ligand
  binding result: binds

From US20140199316A1 (published 2014)
